Consider one molecule from patent US9744220B2, “Compositions and methods for treating inflammatory diseases” (priority 2013, dated 2017).

The test system of this experiment is cardiac and hepatic stem cell markers. In words: Intravenous sPDNF into naïve mice, stem cell markers by real time PCR. The note with it: independently of TLR signaling. In kind it is in vivo. The protocol:
FIG. 2A is a graph showing stem cell marker expression in mice administered sPDNF. One set of three wild type C57BL/6 mice received intravenous (IV) PBS without (PBS) or with sPDNF (2 mg/kg) at 0, 3 and 24 hours (sPDNF 1d), and a second set IV sPDNF (2 mg/kg) for 6 days (sPDNF 6d). Mice were sacrificed 3 hr post injection and the indicated stem cells markers were quantified in the ventricles by real time PCR, and normalized to HPRT; *, p<0.05, **, p<0.001, ***, p<0.0001; SCF, stem cell factor, ns, not significant. FIG. 2B is a graph showing stem cell marker expression in MyD88^−/− mice administered sPDNF. TLR-deficient MyD88^−/− mice (C57BL/6 background) (2/group) were injected IV with a single dose of sPDNF (2 mg/kg), sacrificed at 3 hours post-injection, and the indicated cardiac stem cell markers assessed by qPCR. […] Cardiac Sca-1 and SCF transcripts were quantified by qPCR; **, P<0.001; ***, P<0.0005. FIG. 2D is a graph showing quantitation of Sca-1 expression in various organs of mice administered sPDNF. C57BL/6 mice (3 per group), average of two experiments) were injected IV with sPDNF at 4 mg/kg body weight or PBS, sacrificed 3 hours later, and Sca-1 mRNA quantified by qPCR in the liver, heart, colon and bone marrow (*, P<0.05, **, P<0.001; ns, not significant; dotted line represents Sca-1 mRNA of vehicle-treated mice set at 1.0, data are representative of 2 experiments. […]

B1: sPDNF: N-terminal short-form of T cruzi PDNF that contains Trk-binding sites, recombinant; amino acids 1-588 of SEQ ID NO: 2; JR-100 is the commercial name (protein, listed as Trypanosoma cruzi)
chain: MGKTVVVASRMFWLMFFVPLLLAICPSEPAYALAPGSSRVELFKRKNSTVPFEDKAGKVTERVVHSFRLPALVNVDGVMVAIADARYDTSNDNSLIDTVAKYSVDDGETWETQIAIKNSRVSSVSRVVDPTVIVKGNKLYVLVGSYYSSRSYWSSHGDARDWDILLAVGEVTKSTAGGKITASIKWGSPVSLKKFFPAEMEGMHTNQFLGGAGVAIVASNGNLVYPVQVTNKKKQVFSKIFYSEDDGKTWKFGKGRSDFGCSEPVALEWEGKLIINTRVDWKRRLVYESSDMEKPWVEAVGTVSRVWGPSPKSNQPGSQSSFTAVTIEGMRVMLFTHPLNFKGRWLRDRLNLWLTDNQRIYNVGQVSIGDENSAYSSVLYKDDKLYCLHEINTDEVYSLVFARLVGELRIIKSVLRSWKNWDSHLSSICTPADPAASSSESGCGPAVTTVGLVGFLSGNASQNVWEDAYRCVNASTANAERVRNGLKFAGVGGGALWPVSQQGQNQRYRFANHAFTLVASVTIHEAPRAASPLLGASLDSSGGKKLLGLSYDEKHQWQPIYGSTPVTPTGSWETGKRYHLVLTMANKI
As for B1, the “expression of cardiac and hepatic stem cell markers” value was “increased expression”.
